From the supplement of paper PMC10567573

B1: KCNA3 (parent)
chain: GERVVINISGLRFETQLKTLCQFP
B2: TRAF3IP2 (parent)
chain: PGQPLPGASVRGLHPVQKVILNYP

Variants of: B1
Assay: protein stability index of a GFP-peptide fusion (GPS, HEK-293T) (PSI 1-6); higher = more stable
Details: c terminus: a fixed tail appended
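Note: lentivirally expressed fusions sorted by FACS into six bins by GFP to DsRed ratio, PSI derived from sequencing read proportions per bin multiplied by bin number.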

Protein stability index: each site, then its substitutions
L17: D 2.06, K 1.42, E 1.87, P 2.58, T 2.85, R 1.87
Q16: T 1.39, N 1.04, G 2.49, H 2.53
E14: K 2.42, T 1.83
V5: L 2.29, I 2.99, A 1.53, E 1.47, S 1.67, T 2.42, D 1.55
Q22: E 2.39, C 4.8, D 3.65
R3: Y 3.34, N 1.09, L 2.75, P 2.26
C21: N 1.37
S9: F 2.47, K 2.4, L 2.27
R12: S 1.48
F13: L 1.06, G 2.14, E 2.14, I 2.7, V 2.58
G1: D 1.82, R 3.52, T 2.96
P24: W 1.69
G10: I 1.81, T 2.62, E 2.8, P 4.02
I6: S 2.86, Q 3.56, A 2.21
K18: D 3.02, E 3.06
I8: C 2.62, S 1.86, W 1.76, N 2.53, V 1.28, F 2.85
L11: Q 1.45, W 2.49, A 1.34, H 1.38, I 2.68, V 3.59, D 1.81, N 2.94, T 1.58
N7: E 2.1, G 2.14, P 1.53
E2: K 2.2, T 2.21, P 4.1, M 2.93
T15: R 2.69, N 3.66, G 4.2
L20: G 1.95, A 2.24, R 2.84, M 2.22, D 1.22
T19: M 3.15, R 1.32, K 1.45
F23: R 1.92, E 2.2, N 1.52, T 1.36, K 1.59, Q 1.94, D 2.25
V4: M 2.79, A 1.75, Q 2.34, Y 2.16, W 2.82

Variants of: B2
Assay: as above
Details: c terminus: a fixed tail appended

Protein stability index: each site, then its substitutions
L21: W 2.22, D 4.22, M 3.45, T 3.71, K 3.99, E 3.71, C 3.23, V 2.87, Q 3.79, G 3.64, N 3.6
P24: M 1.22, R 2.65, Q 3.11, Y 1.79, G 2.56, S 2.7, V 1.93, N 3.5, W 2.72, T 2.71, I 1.77
P4: R 3.21, S 2.6, M 3, V 2.69, D 3.03, K 2.69, L 2.66, H 3.08
Y23: E 3.86, D 4.72, I 3.19, F 3.45, V 3.26, M 3.36, H 3.95, G 3.71
R11: Q 3.79, T 3.2, G 2.73, L 2.25, C 3.3, H 3.51, I 2.96, Y 3.4, K 2.88
P6: V 3.46, H 3.44, L 2.42, E 3.69, Y 2.72, K 2.54, D 3.37, M 3.09
N22: V 1.69, A 2.74, T 3.05, S 3.27, G 2.54, Y 1.95, E 3.51, C 2.51, D 3.13, Q 2.98
H14: P 3.67, C 3.3, K 3.51, E 3.96, A 3.45, W 2.15, L 2.83, M 2.69, F 2.61, D 3.67, N 3.24
K18: T 3.38, L 2.31, Y 2.52, G 3.57, C 2.09, D 3.6, F 2.3, P 2.99, A 2.64, R 2.64, S 3.27
Q17: Y 3.02, H 2.9, W 1.87, T 2.81, F 1.26, G 3.1, M 2.43
Q3: I 2.88, G 4.09, V 3.42, P 3.57, C 2.71, S 3.97, F 2.42, M 3.34, L 2.96, T 3.12, D 3.15, N 3.28, Y 2.41, E 3.65, W 2.31
S9: H 3.5, Q 2.86, V 3.27, M 2.68, N 3.33, Y 2.62, E 2.92, T 3.48, K 3.19, F 2.21, G 3.2
L5: K 3.25, C 2.94, W 2.94, I 3.34, A 3.31, D 3.84, N 3.66, S 3.43, E 3.15, G 3.56, R 3.19
G12: N 2.94, P 3.14, L 2.12, Q 3.42, Y 2.74, E 3.87, K 3.2, C 2.72, D 3.64, H 2.7
V19: S 3.09, M 2.74, H 3.06, I 3.26, E 4.06, P 3.29, L 3.23, N 3.59, W 3.38
P1: T 2.65, E 3.31, L 2.78, S 2.62, W 2.45, D 2.97, H 3.31, M 3
G2: R 3.39, M 2.44, L 2.23, K 2.58, E 3.79, S 2.81, V 3.21, Q 2.85
A8: D 3.19, F 2.51, Y 2.71, I 2.83, Q 2.59, R 2.89, M 2.97, S 3.27, T 3.65, E 3.36, C 2.27
I20: E 3.91, Q 3.87, S 4.67, T 3.03, F 3.38, L 3.45, M 3.42, K 4.01, H 2.95
V16: D 4.08, Y 2.04, Q 3.63, M 2.72, W 2.54, L 2.57, R 3.49, S 3.46, F 2.83, I 3.09, N 3.61
G7: T 3.31, N 2.68, Y 2.26, Q 3.12, A 3.02, I 3.05, F 3.15, S 2.76, C 2.59, V 3.26, D 3.22, L 3.44, W 2.09
P15: T 2.48, L 2.25, V 2.02, M 2.05, H 3.08, K 2.75, R 3.39, Y 1.91, S 2.79, A 2.29
L13: Q 3.69, K 3.5, C 1.83, V 2.85, H 3.75, F 2.91, M 3.59, T 3.56
V10: S 3, E 3.19, P 3.22, N 3.5, L 2.61, D 2.96, H 2.79, T 2.87, W 2.62, Q 3.05, A 3.52, M 3
